Results published in patent publication US20200369737A1 (published 2020).

Legend:
Experiment in all cases: sandwich ELISA; receptor ECD/Fc chimera captured on anti-Fc plates, biotin-labeled ligand titrated, streptavidin-HRP detection
[1] = biological target: T1, recombinant human HER3/Fc chimera (receptor extracellular domain/Fc chimera) (human, UniProt P21860 20-643)
T1 construct: extracellular domain; Bought from R&D Systems; Captured on plates coated with anti-Fc antibody; not shown: Fc part (and any linker) of the purchased R&D Systems chimera

[2] = biological target: T2, recombinant human EGFR/Fc chimera (receptor extracellular domain/Fc chimera) (human, UniProt P00533 25-645)
T2 construct: extracellular domain; Bought from R&D Systems; Captured on plates coated with anti-Fc antibody; also called HER/Fc chimera-EGFR; HER1; not shown: Fc part (and any linker) of the purchased R&D Systems chimera

[3] = biological target: T3, recombinant human HER4/Fc chimera (receptor extracellular domain/Fc chimera) (human, UniProt Q15303 26-651)
T3 construct: extracellular domain; Bought from R&D Systems; Captured on plates coated with anti-Fc antibody; not shown: Fc part (and any linker) of the purchased R&D Systems chimera
T3 sequence (looked up): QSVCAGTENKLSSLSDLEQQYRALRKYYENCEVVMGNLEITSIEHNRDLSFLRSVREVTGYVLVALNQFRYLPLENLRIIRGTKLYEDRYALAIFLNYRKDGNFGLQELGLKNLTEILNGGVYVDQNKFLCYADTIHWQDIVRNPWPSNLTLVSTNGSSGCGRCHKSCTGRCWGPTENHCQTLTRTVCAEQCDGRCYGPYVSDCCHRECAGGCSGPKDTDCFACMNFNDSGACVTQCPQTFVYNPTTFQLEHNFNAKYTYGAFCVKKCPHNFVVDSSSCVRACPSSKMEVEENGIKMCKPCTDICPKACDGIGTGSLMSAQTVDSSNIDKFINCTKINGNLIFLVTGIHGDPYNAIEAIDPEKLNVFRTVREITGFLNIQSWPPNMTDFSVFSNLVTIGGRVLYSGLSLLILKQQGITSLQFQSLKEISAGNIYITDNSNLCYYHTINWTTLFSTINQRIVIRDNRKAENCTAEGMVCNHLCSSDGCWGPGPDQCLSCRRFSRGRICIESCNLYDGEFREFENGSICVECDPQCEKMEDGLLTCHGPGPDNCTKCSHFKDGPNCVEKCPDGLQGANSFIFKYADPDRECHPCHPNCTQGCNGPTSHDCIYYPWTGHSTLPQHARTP

T1 sequence (P21860 20-643, change not shown): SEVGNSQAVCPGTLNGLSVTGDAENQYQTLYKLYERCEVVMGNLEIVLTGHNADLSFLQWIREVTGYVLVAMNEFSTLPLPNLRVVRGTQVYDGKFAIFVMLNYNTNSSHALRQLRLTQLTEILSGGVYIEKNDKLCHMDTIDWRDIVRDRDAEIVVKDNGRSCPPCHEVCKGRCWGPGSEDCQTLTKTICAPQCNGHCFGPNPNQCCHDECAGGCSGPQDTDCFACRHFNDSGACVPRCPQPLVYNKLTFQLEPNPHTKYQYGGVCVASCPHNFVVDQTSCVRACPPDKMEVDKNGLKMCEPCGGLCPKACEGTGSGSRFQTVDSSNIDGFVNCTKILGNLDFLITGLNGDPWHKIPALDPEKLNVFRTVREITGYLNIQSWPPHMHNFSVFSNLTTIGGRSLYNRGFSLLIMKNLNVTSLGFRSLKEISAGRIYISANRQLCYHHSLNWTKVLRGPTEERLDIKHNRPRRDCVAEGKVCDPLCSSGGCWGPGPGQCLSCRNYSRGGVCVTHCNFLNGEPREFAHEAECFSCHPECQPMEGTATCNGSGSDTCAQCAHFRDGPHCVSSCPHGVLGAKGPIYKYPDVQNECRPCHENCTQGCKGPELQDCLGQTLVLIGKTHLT

Kd [1]: 6 nM
Kd [2]: 5 nM
Kd [3]: 4 nM
B1: Pan-HER DNL B5-3M2 tagged with biotin (ligand)
chain: NSDSECPLSHDGYCLNDGVCMYTEAKDEYACNCVVGYIGERCQYYDLL
modifications: not fully specified; biotin label; paragraph 113 says derivatized at the N-terminus; paragraph 97 says B5-3M2 has two sites for biotinylation, the N terminus and K26
notes: Made in E. coli; also called tagged (biotinylated) DNL; EGF1-48 H16N, I23T, L26K, K28E, R45Y, K48L
